In US20260242735A1 (UNIVERSIT T BASEL, published 2026):

B1: Refmab #6 (antibody, V domains shown)
VH: QVQLQQPGAEVVKPGASVKMSCKASGYTFTSYYIHWIKQTPGQGLEWVGVIYPGNDDISYNQKFQGKATLTADKSSTTAYMQLSSLTSEDSAVYYCAREVRLRYFDVWGQGTTVTVSS
VL: EIVLTQSPGSLAVSPGERVTMSCKSSQSVFFSSSQKNYLAWYQQIPGQSPRLLIYWASTRESGVPDRFTGSGSGTDFTLTISSVQPEDLAIYYCHQYLSSRTFGQGTKLEIK
notes: Full-length format is human IgG1 Fc silent (PG-LALA); also made as Fab; The alanine scan used IgG or Fab
B2: Refmab #6 (antibody, V domains shown)
VH: B1 VH
VL: B1 VL
notes: The alanine scan used IgG or Fab
B3: Refmab #6 (antibody, human IgG1, V domains shown)
VH: B1 VH
VL: B1 VL
notes: tested in IgG format
B4: Refmab #5 (antibody, V domains shown)
VH: QVQLVQSGAEVKKPGASVKVSCKASGYTFTNYDINWVRQAPGQGLEWIGWIYPGDGSTKYNEKFKAKATLTADTSTSTAYMELRSLRSDDTAVYYCASGYEDAMDYWGQGTTVTVSS
VL: DIQMTQSPSSLSASVGDRVTINCKASQDINSYLSWFQQKPGKAPKTLIYRANRLVDGVPSRFSGSGSGQDYTLTISSLQPEDFATYYCLQYDEFPLTFGGGTKVEIK
notes: as for B1
B5: Refmab #5 (antibody, human IgG1, V domains shown)
VH: B4 VH
VL: B4 VL
notes: tested in IgG format
B6: Refmab #5 (antibody, V domains shown)
VH: B4 VH
VL: B4 VL
notes: as for B2

Key:
human CD33 G114A = human CD33 G114A (human, UniProt P20138 18-364); test: alanine scan, flow cytometry, HEK293-T;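 also: antibody binding to each alanine-substituted CD33 mutant expressed transiently in HEK293-T, read as fluorescence minus background, mean of duplicates, relative to wild-type CD33 set as 100%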
Chain of human CD33 G114A (P20138 18-364 G114A limits assumed): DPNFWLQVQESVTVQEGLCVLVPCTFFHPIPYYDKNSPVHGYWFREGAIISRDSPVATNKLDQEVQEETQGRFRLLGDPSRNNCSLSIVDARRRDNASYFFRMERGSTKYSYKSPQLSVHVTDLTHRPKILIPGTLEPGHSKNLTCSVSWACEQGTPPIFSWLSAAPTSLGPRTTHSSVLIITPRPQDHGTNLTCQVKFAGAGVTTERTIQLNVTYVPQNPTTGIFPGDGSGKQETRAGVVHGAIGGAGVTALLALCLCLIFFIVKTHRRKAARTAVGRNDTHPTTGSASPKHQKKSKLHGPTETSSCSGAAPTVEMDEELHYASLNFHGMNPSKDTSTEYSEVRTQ

human CD33 R91A = human CD33 R91A (human, UniProt P20138 18-364); test: alanine scan, flow cytometry, HEK293-T;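 also: antibody binding to each alanine-substituted CD33 mutant expressed transiently in HEK293-T, read as fluorescence minus background, mean of duplicates, relative to wild-type CD33 set as 100%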
Chain of human CD33 R91A (P20138 18-364 R91A limits assumed): as the sequence (P20138 18-364 G114A limits assumed) above, with R74A, A97G counted along it

human CD33 Y49A = human CD33 Y49A (human, UniProt P20138 18-364); test: alanine scan, flow cytometry, HEK293-T;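 also: antibody binding to each alanine-substituted CD33 mutant expressed transiently in HEK293-T, read as fluorescence minus background, mean of duplicates, relative to wild-type CD33 set as 100%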
Chain of human CD33 Y49A (P20138 18-364 Y49A limits assumed): as the sequence (P20138 18-364 G114A limits assumed) above, with Y32A, A97G counted along it

human CD33 S54A = human CD33 S54A (human, UniProt P20138 18-364); test: alanine scan, flow cytometry, HEK293-T;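 also: antibody binding to each alanine-substituted CD33 mutant expressed transiently in HEK293-T, read as fluorescence minus background, mean of duplicates, relative to wild-type CD33 set as 100%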
Chain of human CD33 S54A (P20138 18-364 S54A limits assumed): as the sequence (P20138 18-364 G114A limits assumed) above, with S37A, A97G counted along it

human CD33 L92A = human CD33 L92A (human, UniProt P20138 18-364); test: alanine scan, flow cytometry, HEK293-T
Chain of human CD33 L92A (P20138 18-364 L92A limits assumed): as the sequence (P20138 18-364 G114A limits assumed) above, with L75A, A97G counted along it

human CD33 R89A = human CD33 R89A (human, UniProt P20138 18-364); test: alanine scan, flow cytometry, HEK293-T
Chain of human CD33 R89A (P20138 18-364 R89A limits assumed): as the sequence (P20138 18-364 G114A limits assumed) above, with R72A, A97G counted along it

human CD33 R111A = human CD33 R111A (human, UniProt P20138 18-364); test: alanine scan, flow cytometry, HEK293-T
Chain of human CD33 R111A (P20138 18-364 R111A limits assumed): as the sequence (P20138 18-364 G114A limits assumed) above, with R94A, A97G counted along it

human CD33 D79A = human CD33 D79A (human, UniProt P20138 18-364); test: alanine scan, flow cytometry, HEK293-T
Chain of human CD33 D79A (P20138 18-364 D79A limits assumed): as the sequence (P20138 18-364 G114A limits assumed) above, with D62A, A97G counted along it

human CD33 K52A = human CD33 K52A (human, UniProt P20138 18-364); test: alanine scan, flow cytometry, HEK293-T
Chain of human CD33 K52A (P20138 18-364 K52A limits assumed): as the sequence (P20138 18-364 G114A limits assumed) above, with K35A, A97G counted along it

human CD33 R69A = human CD33 R69A (human, UniProt P20138 18-364); test: alanine scan, flow cytometry, HEK293-T
Chain of human CD33 R69A (P20138 18-364 R69A limits assumed): as the sequence (P20138 18-364 G114A limits assumed) above, with R52A, A97G counted along it

human CD33 E85A = human CD33 E85A (human, UniProt P20138 18-364); test: alanine scan, flow cytometry, HEK293-T
Chain of human CD33 E85A (P20138 18-364 E85A limits assumed): as the sequence (P20138 18-364 G114A limits assumed) above, with E68A, A97G counted along it

human CD33 L103A = human CD33 L103A (human, UniProt P20138 18-364); test: alanine scan, flow cytometry, HEK293-T
Chain of human CD33 L103A (P20138 18-364 L103A limits assumed): as the sequence (P20138 18-364 G114A limits assumed) above, with L86A, A97G counted along it

human CD33 D95A = human CD33 D95A (human, UniProt P20138 18-364); test: alanine scan, flow cytometry, HEK293-T
Chain of human CD33 D95A (P20138 18-364 D95A limits assumed): as the sequence (P20138 18-364 G114A limits assumed) above, with D78A, A97G counted along it

human CD33 D70A = human CD33 D70A (human, UniProt P20138 18-364); test: alanine scan, flow cytometry, HEK293-T
Chain of human CD33 D70A (P20138 18-364 D70A limits assumed): as the sequence (P20138 18-364 G114A limits assumed) above, with D53A, A97G counted along it

human CD33 P72A = human CD33 P72A (human, UniProt P20138 18-364); test: alanine scan, flow cytometry, HEK293-T
Chain of human CD33 P72A (P20138 18-364 P72A limits assumed): as the sequence (P20138 18-364 G114A limits assumed) above, with P55A, A97G counted along it

human CD33 R144A = biological target: T1, human CD33 R144A (human, UniProt P20138 18-364); test: alanine scan, flow cytometry, HEK293-T
T1 construct: alanine scan clone, transfected HEK293-T
T1 sequence (P20138 18-364 R144A limits assumed): as the sequence (P20138 18-364 G114A limits assumed) above, with A97G, R127A counted along it

human CD33 A183S = biological target: T2, human CD33 A183S (human, UniProt P20138 18-364); test: alanine scan, flow cytometry, HEK293-T
T2 construct: alanine scan clone, transfected HEK293-T
T2 sequence (P20138 18-364 A183S limits assumed): as the sequence (P20138 18-364 G114A limits assumed) above, with A97G, A166S counted along it

human CD33 S124A = biological target: T3, human CD33 S124A (human, UniProt P20138 18-364); test: alanine scan, flow cytometry, HEK293-T
T3 construct: alanine scan clone, transfected HEK293-T
T3 sequence (P20138 18-364 S124A limits assumed): as the sequence (P20138 18-364 G114A limits assumed) above, with A97G, S107A counted along it

human CD33 R122A = biological target: T4, human CD33 R122A (human, UniProt P20138 18-364); test: alanine scan, flow cytometry, HEK293-T
T4 construct: alanine scan clone, transfected HEK293-T
T4 sequence (P20138 18-364 R122A limits assumed): as the sequence (P20138 18-364 G114A limits assumed) above, with A97G, R105A counted along it

human CD33 T139A = biological target: T5, human CD33 T139A (human, UniProt P20138 18-364); test: alanine scan, flow cytometry, HEK293-T
T5 construct: alanine scan clone, transfected HEK293-T
T5 sequence (P20138 18-364 T139A limits assumed): as the sequence (P20138 18-364 G114A limits assumed) above, with A97G, T122A counted along it

human CD33 P132A = biological target: T6, human CD33 P132A (human, UniProt P20138 18-364); test: alanine scan, flow cytometry, HEK293-T
T6 construct: alanine scan clone, transfected HEK293-T
T6 sequence (P20138 18-364 P132A limits assumed): as the sequence (P20138 18-364 G114A limits assumed) above, with A97G, P115A counted along it

human CD33 K126A = biological target: T7, human CD33 K126A (human, UniProt P20138 18-364); test: alanine scan, flow cytometry, HEK293-T
T7 construct: alanine scan clone, transfected HEK293-T
T7 sequence (P20138 18-364 K126A limits assumed): as the sequence (P20138 18-364 G114A limits assumed) above, with A97G, K109A counted along it

human CD33 E170A = biological target: T8, human CD33 E170A (human, UniProt P20138 18-364); test: alanine scan, flow cytometry, HEK293-T
T8 construct: alanine scan clone, transfected HEK293-T
T8 sequence (P20138 18-364 E170A limits assumed): as the sequence (P20138 18-364 G114A limits assumed) above, with A97G, E153A counted along it

human CD33 Q133A = biological target: T9, human CD33 Q133A (human, UniProt P20138 18-364); test: alanine scan, flow cytometry, HEK293-T
T9 construct: alanine scan clone, transfected HEK293-T
T9 sequence (P20138 18-364 Q133A limits assumed): as the sequence (P20138 18-364 G114A limits assumed) above, with A97G, Q116A counted along it

human CD33 P174A = biological target: T10, human CD33 P174A (human, UniProt P20138 18-364); test: alanine scan, flow cytometry, HEK293-T
T10 construct: alanine scan clone, transfected HEK293-T
T10 sequence (P20138 18-364 P174A limits assumed): as the sequence (P20138 18-364 G114A limits assumed) above, with A97G, P157A counted along it

human CD33 G172A = biological target: T11, human CD33 G172A (human, UniProt P20138 18-364); test: alanine scan, flow cytometry, HEK293-T
T11 construct: alanine scan clone, transfected HEK293-T
T11 sequence (P20138 18-364 G172A limits assumed): as the sequence (P20138 18-364 G114A limits assumed) above, with A97G, G155A counted along it

human CD33 C169A = biological target: T12, human CD33 C169A (human, UniProt P20138 18-364); test: alanine scan, flow cytometry, HEK293-T
T12 construct: alanine scan clone, transfected HEK293-T
T12 sequence (P20138 18-364 C169A limits assumed): as the sequence (P20138 18-364 G114A limits assumed) above, with A97G, C152A counted along it

human CD33 S131A = biological target: T13, human CD33 S131A (human, UniProt P20138 18-364); test: alanine scan, flow cytometry, HEK293-T
T13 construct: alanine scan clone, transfected HEK293-T
T13 sequence (P20138 18-364 S131A limits assumed): as the sequence (P20138 18-364 G114A limits assumed) above, with A97G, S114A counted along it

human CD33 R190A = biological target: T14, human CD33 R190A (human, UniProt P20138 18-364); test: alanine scan, flow cytometry, HEK293-T
T14 construct: alanine scan clone, transfected HEK293-T
T14 sequence (P20138 18-364 R190A limits assumed): as the sequence (P20138 18-364 G114A limits assumed) above, with A97G, R173A counted along it

human CD33 A182S = biological target: T15, human CD33 A182S (human, UniProt P20138 18-364); test: alanine scan, flow cytometry, HEK293-T
T15 construct: alanine scan clone, transfected HEK293-T
T15 sequence (P20138 18-364 A182S limits assumed): as the sequence (P20138 18-364 G114A limits assumed) above, with A97G, A165S counted along it

human CD33 T152A = biological target: T16, human CD33 T152A (human, UniProt P20138 18-364); test: alanine scan, flow cytometry, HEK293-T
T16 construct: alanine scan clone, transfected HEK293-T
T16 sequence (P20138 18-364 T152A limits assumed): as the sequence (P20138 18-364 G114A limits assumed) above, with A97G, T135A counted along it

human CD33 G123A = biological target: T17, human CD33 G123A (human, UniProt P20138 18-364); test: alanine scan, flow cytometry, HEK293-T
T17 construct: alanine scan clone, transfected HEK293-T
T17 sequence (P20138 18-364 G123A limits assumed): as the sequence (P20138 18-364 G114A limits assumed) above, with A97G, G106A counted along it

human CD33 W179A = biological target: T18, human CD33 W179A (human, UniProt P20138 18-364); test: alanine scan, flow cytometry, HEK293-T
T18 construct: alanine scan clone, transfected HEK293-T
T18 sequence (P20138 18-364 W179A limits assumed): as the sequence (P20138 18-364 G114A limits assumed) above, with A97G, W162A counted along it

human CD33 I149A = biological target: T19, human CD33 I149A (human, UniProt P20138 18-364); test: alanine scan, flow cytometry, HEK293-T
T19 construct: alanine scan clone, transfected HEK293-T
T19 sequence (P20138 18-364 I149A limits assumed): as the sequence (P20138 18-364 G114A limits assumed) above, with A97G, I132A counted along it

human CD33 S195A = biological target: T20, human CD33 S195A (human, UniProt P20138 18-364); test: alanine scan, flow cytometry, HEK293-T
T20 construct: alanine scan clone, transfected HEK293-T
T20 sequence (P20138 18-364 S195A limits assumed): as the sequence (P20138 18-364 G114A limits assumed) above, with A97G, S178A counted along it

human CD33 W22N = human CD33 W22N (human, UniProt P20138 18-364); test: flow cytometry, HEK293-T, IgG;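 also: CD33 point mutants transiently expressed, antibody binding measured by fluorescence in duplicate, background subtracted and scaled to binding on wild-type CD33 as 100%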
Chain of human CD33 W22N (P20138 18-364 W22N limits assumed): as the sequence (P20138 18-364 G114A limits assumed) above, with W5N, A97G counted along it
Description: An alanine scan on human CD33 was performed to the determine the residues on CD33 that are involved in binding to the antibodies investigated. […] Briefly, a mutation library of CD33 was created by high-throughput, site-directed mutagenesis. Each residue was individually mutated to alanine, with alanine codons mutated to serine. The mutant library was arrayed in 384-well microplates and transiently transfected into HEK293-T. Following transfection, cells were incubated with the indicated antibodies (IgG or Fab) at concentrations pre-determined using an independent immunofluorescence titration curve on wild type CD33. […] Binding of each antibody to each mutant clone was determined in duplicates. For each point, background fluorescence was subtracted from the raw data, which were then normalized to antibody reactivity with wild type CD33.
Antibodies were screened for binding to the human CD33 variants in IgG format. […] For each mutation, background fluorescence was subtracted from the raw data, which were then normalized to antibody reactivity with wild-type CD33.

| Binder | Mean % WT Binding (human CD33 G114A) | Mean % WT Binding (human CD33 R91A) | Mean % WT Binding (human CD33 Y49A) | Mean % WT Binding (human CD33 S54A) | Mean % WT Binding (human CD33 L92A) | Mean % WT Binding (human CD33 R89A) | Mean % WT Binding (human CD33 R111A) | Mean % WT Binding (human CD33 D79A) | Mean % WT Binding (human CD33 K52A) | Mean % WT Binding (human CD33 R69A) | Mean % WT Binding (human CD33 E85A) | Mean % WT Binding (human CD33 L103A) | Mean % WT Binding (human CD33 D95A) | Mean % WT Binding (human CD33 D70A) | Mean % WT Binding (human CD33 P72A) | Mean % WT Binding (human CD33 R144A) | Mean % WT Binding (human CD33 A183S) | Mean % WT Binding (human CD33 S124A) | Mean % WT Binding (human CD33 R122A) | Mean % WT Binding (human CD33 T139A) | other results |
| --- | --- | --- | --- | --- | --- | --- | --- | --- | --- | --- | --- | --- | --- | --- | --- | --- | --- | --- | --- | --- | --- |
| B1 | 106 % WT binding | 91.4 % WT binding | 113 % WT binding | 83.6 % WT binding | 85.3 % WT binding | 80.8 % WT binding | 102 % WT binding | 78.2 % WT binding | 77 % WT binding | 101 % WT binding | 94.4 % WT binding | 61.5 % WT binding | 86.3 % WT binding | 80.3 % WT binding | 92.3 % WT binding | – | – | – | – | – | – |
| B2 | – | – | – | – | – | – | – | – | – | – | – | – | – | – | – | 104 % WT binding | 92.3 % WT binding | 98.2 % WT binding | 106 % WT binding | 97.7 % WT binding | Mean % WT Binding (human CD33 P132A): 3.6 % WT binding; Mean % WT Binding (human CD33 K126A): 134 % WT binding; Mean % WT Binding (human CD33 E170A): 89.5 % WT binding; Mean % WT Binding (human CD33 Q133A): 88.3 % WT binding; Mean % WT Binding (human CD33 P174A): 103 % WT binding; Mean % WT Binding (human CD33 G172A): 76.8 % WT binding; Mean % WT Binding (human CD33 C169A): 76.2 % WT binding; Mean % WT Binding (human CD33 S131A): 10.8 % WT binding; Mean % WT Binding (human CD33 R190A): 112 % WT binding; Mean % WT Binding (human CD33 A182S): 93.9 % WT binding; Mean % WT Binding (human CD33 T152A): 92.7 % WT binding; Mean % WT Binding (human CD33 G123A): 94.1 % WT binding; Mean % WT Binding (human CD33 W179A): 96.7 % WT binding; Mean % WT Binding (human CD33 I149A): 100 % WT binding; Mean % WT Binding (human CD33 S195A): 113 % WT binding |
| B3 | – | – | – | – | – | – | – | – | – | – | – | – | – | – | – | – | – | – | – | – | Mean % WT Binding (human CD33 W22N): 5.6 % WT binding |
| B4 | 79 % WT binding | 101 % WT binding | 20.6 % WT binding | 146 % WT binding | 127 % WT binding | 137 % WT binding | 118 % WT binding | 91.3 % WT binding | 11.9 % WT binding | 164 % WT binding | 158 % WT binding | 91.6 % WT binding | 122 % WT binding | 112 % WT binding | 116 % WT binding | – | – | – | – | – | – |
| B5 | – | – | – | – | – | – | – | – | – | – | – | – | – | – | – | – | – | – | – | – | Mean % WT Binding (human CD33 W22N): 106 % WT binding |
| B6 | – | – | – | – | – | – | – | – | – | – | – | – | – | – | – | 71 % WT binding | 101 % WT binding | 79.4 % WT binding | 85.7 % WT binding | 104 % WT binding | Mean % WT Binding (human CD33 P132A): 97.3 % WT binding; Mean % WT Binding (human CD33 K126A): 134 % WT binding; Mean % WT Binding (human CD33 E170A): 110 % WT binding; Mean % WT Binding (human CD33 Q133A): 112 % WT binding; Mean % WT Binding (human CD33 P174A): 118 % WT binding; Mean % WT Binding (human CD33 G172A): 92.7 % WT binding; Mean % WT Binding (human CD33 C169A): 101 % WT binding; Mean % WT Binding (human CD33 S131A): 106 % WT binding; Mean % WT Binding (human CD33 R190A): 112 % WT binding; Mean % WT Binding (human CD33 A182S): 103 % WT binding; Mean % WT Binding (human CD33 T152A): 137 % WT binding; Mean % WT Binding (human CD33 G123A): 67.5 % WT binding; Mean % WT Binding (human CD33 W179A): 133 % WT binding; Mean % WT Binding (human CD33 I149A): 112 % WT binding; Mean % WT Binding (human CD33 S195A): 117 % WT binding |
